The subject of data set [1] is DriD WT (Caulobacter crescentus). Kind of data set: fluorescence polarization. Conditions: FP: 25 mM Tris-HCl pH 7.5, 150 mM NaCl, 2.5% glycerol, 100 uM ssDNA, temperature not stated; cryo-EM: 20 mM Tris-HCl pH 8, 5 mM MgCl2, 100 mM NaCl, 1 mM bME ….
The test system of data set [2] is DriD(G18K-A20K) (Caulobacter crescentus). Put plainly: fluorescence polarization. To be noted: FP: 25 mM Tris-HCl pH 7.5, 150 mM NaCl, 2.5% glycerol, 100 uM ssDNA, temperature not stated; cryo-EM: 20 mM Tris-HCl pH 8, 5 mM MgCl2, 100 mM NaCl, 1 mM bME …. (In general: Fluorescence polarisation rises when a labelled molecule tumbles more slowly, as on binding a larger partner.)

Data set [3] has as its target C. crescentus DriD (wild type) (C. crescentus). Kind of data set: fluorescence polarisation; DriD (WT or mutant) first bound to fluoresceinated target DNA with 100 μM ssDNA, then increasing αCTD titrated in; 25 mM Tris-HCl pH 7.5, 150 mM NaCl, 2.5 % glycerol; apparent Kd; three technical replicates.

As to “ATACGACAGTAACTGTCGTAT (double strand) [F-DriD target DNA]”, the Kd in data set [1] amounted to 7.1 nM; in data set [2], 9.2 nM.

“C. crescentus α subunit CTD (α residues 161–248) (domain or fragment)”: in data set [3], the Kd was 30000 nM.

The record behind these values is paper PMC12340889.
